According to patent publication US20230105324A1 (Hoffmann-La Roche, published 2023):
Positions count from the first letter of the chain named. Like-named read-outs stand apart in the source and are kept apart here.

T1: human VEGF121-His (human, UniProt P15692 207-395)
T1 construct: Captured by an anti-His antibody on the chip; not shown: His tag
T1 sequence: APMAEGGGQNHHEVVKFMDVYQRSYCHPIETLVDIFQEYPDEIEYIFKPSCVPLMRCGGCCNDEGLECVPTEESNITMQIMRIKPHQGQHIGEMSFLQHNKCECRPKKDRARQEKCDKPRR

T2: human PDGF-BB (human)
T2 construct: The ELISA text names human PDGF-BB of Cell Signaling, Cat. No 8921BF
T2 chain: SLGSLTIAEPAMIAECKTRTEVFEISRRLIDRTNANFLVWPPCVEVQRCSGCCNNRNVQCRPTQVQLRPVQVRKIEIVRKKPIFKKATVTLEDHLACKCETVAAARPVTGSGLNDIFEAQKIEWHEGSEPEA

T3: minipig PDGF (minipig)
T3 construct: Printed only as minipig PDGF; also called Minpig PDGF
T3 sequence (P20034 whole entry, looked up): SLGSPAVAEPAVIAE

B1: bispecific anti-VEGF/anti-PDGF-B Fab fragment P1AE2845 (Fab, V domains shown)
VH: EEQLVESGGGLVQPGGSLRLSCAASGWWFEYTDMSWVRQAPGQGLEWVGSISPSGGSTYYNTNFIGRFTISRDDSKNTLYLQMNSLRDEDTAVYYCARDEGYFDEWGQGTLVTVSS
VL: AIQMTQSPSSLSASVGDRVTITCQASYWLHKYLAWYQQKPGQAPKLLIYDASELEYGVPDRFSGSGSGTDFTLTISSLEPEDFAVYYCQNYRYHPYTFGQGTKLEIKR
notes: DutaFab: one VH/VL pair carries both paratopes; Expressed in E. coli TG1
B2: bispecific anti-VEGF/anti-PDGF-B Fab fragment RO7113083 (Fab, V domains shown)
VH: DLQLVESGGGLVKPGGSLRLSCAADGWWFGYTDMSWVRQAPGKGLEWVGSISYKGGSTYYNTKFIGRFTISRDDDTNTLYLQMNSLRAEDTAVYYCARDDGYFDTWGQGTLVTVSS
VL: AIYMHQEPSSLSASVGDRVTITCHGSYWLSNYLAWYQQKPGKAPKLLIYDGKEREHGVPSRFSGSGSHEDYTLTISSLQPEDFATYYCQQYRYHPYTFGHGTKVEIKR
notes: also called R07113083
B3: bispecific anti-VEGF/anti-PDGF-B Fab fragment 28.01 (Fab, V domains shown)
VH: B2 VH
VL: B2 VL with Y3H, H5Y
B4: bispecific anti-VEGF/anti-PDGF-B Fab fragment 28.02 (Fab, V domains shown)
VH: B2 VH with S57H, T58K, Y60L
VL: B2 VL with Y3H, H5Y
B5: bispecific anti-VEGF/anti-PDGF-B Fab fragment 28.07 (Fab, V domains shown)
VH: B2 VH with S57H, T58K, Y60L
VL: B2 VL
B6: bispecific anti-VEGF/anti-PDGF-B Fab fragment P1AA9124 (Fab, V domains shown)
VH: B2 VH
VL: B2 VL with Y3Q, H5T, E7S, H100Q, V104L

Legend:
[1] = target: T1, human VEGF121-His; test: SPR, VEGF121-His captured via anti-His antibody on C1 chip, Fab as analyte, single cycle kinetics
Description: (§1) An anti-His capturing antibody (GE Healthcare 28995056) was immobilized to a Series S Sensor Chip C1 (GE Healthcare 29104990) using standard amine coupling chemistry resulting in a surface densitiy of approximately 500 resonance units (RU). As running and dilution buffer, HBS-P+ (10 mM HEPES, 150 mM NaCl pH 7.4, 0.05% Surfactant P20) was used. […] The surface was regenerated by injecting 10 mM Glycine pH 1.5 for 60s. […] Curve fitting was performed using the 1:1 Langmuir binding model within the Biacore evaluation software. To provide more robust fitting, the Multiple Rmax option was chosen for global fitting using both ligand densities.

[2] = target: T2, human PDGF-BB; test: SPR, Fab fragment; assay format for PDGF not described
[3] = target: T1, human VEGF121-His; test: SPR, VEGF121-His captured via anti-His antibody on C1 chip, Fab as analyte, single cycle kinetics; remark: listed apart in the source
Description: as §1

[4] = target: T2, human PDGF-BB; test: SPR, Fab fragment; assay format for PDGF not described
[5] = target: T4, cynomolgus PDGF (cynomolgus); test: as above
T4 construct: Printed only as cynomolgus PDGF

[6] = target: T3, minipig PDGF; test: as above
[7] = target: T5, rabbit PDGF (rabbit); test: as above
T5 construct: Printed only as rabbit PDGF

[8] = target: T2, human PDGF-BB; test: as above

Row | Binder | Kd [1] [nM] | koff [1] [s⁻¹] | kon [1] [M⁻¹ s⁻¹] | t½ [1] [min] | Kd [2] [nM] | t½ [2] [min] | Kd [5] [nM] | t½ [5] [min] | Kd [6] [nM] | t½ [6] [min] | Kd [7] [nM] | t½ [7] [min] | Kd [8] [nM] | t½ [8] [min] | koff [6] [s⁻¹] | kon [6] [M⁻¹ s⁻¹] | koff [7] [s⁻¹] | kon [7] [M⁻¹ s⁻¹] | koff [8] [s⁻¹] | kon [8] [M⁻¹ s⁻¹] | also measured
1 | B1 | 0.13 | 6.54e-05 | 503000 | 177 | 95 | 0.1 | – | – | – | – | – | – | – | – | – | – | – | – | – | – | koff [2]: 0.0779 s⁻¹; kon [2]: 824000 M⁻¹ s⁻¹; Kd [3]: 0.13 nM; koff [3]: 6.54e-05 s⁻¹; kon [3]: 503000 M⁻¹ s⁻¹; t½ [3]: 177 min; Kd [4]: 95 nM; koff [4]: 0.0779 s⁻¹; kon [4]: 824000 M⁻¹ s⁻¹; t½ [4]: 0.1 min
2 | B2 | – | – | – | – | 1 | 90 | 0.7 | 53 | 0.3 | 59 | 0.6 | 59 | 1.3 | 25 | – | – | – | – | – | – | –
3 | B3 | – | – | – | – | – | – | 0.6 | 54 | 0.3 | 69 | 0.6 | 67 | 1.3 | 26 | – | – | – | – | – | – | –
4 | B4 | 0.007 | 1.15e-05 | 1.56e+06 | 1010 | – | – | – | – | 0.4 | 54 | 0.7 | 53 | 1.3 | 24 | 0.000215 | 605000 | 0.000218 | 325000 | 0.000485 | 368000 | –
5 | B5 | 0.012 | 1.73e-05 | 1.4e+06 | 668 | – | – | 0.6 | 54 | 0.3 | 51 | 0.7 | 52 | 1.4 | 24 | 0.000225 | 646000 | 0.000223 | 337000 | 0.000483 | 357000 | koff [5]: 0.000215 s⁻¹; kon [5]: 336000 M⁻¹ s⁻¹
6 | B6 | – | – | – | – | 1 | 44 | 0.6 | 52 | 0.4 | 48 | 0.7 | 48 | – | 24 | – | – | – | – | – | – | –
